Experimental data taken from the supplement of paper PMC9112550, “Optimization of the antimicrobial peptide Bac7 by deep mutational scanning” (BMC Biology, 2022).

What follows are sequences tested on Escherichia coli TOP10 (assay: shrunken log2 fold change of peptide-encoding DNA abundance (4.5 h post-induction vs induction); higher = less antimicrobial activity (less host growth inhibition)). Conditions: time post-induction: 4.5 h; library: site-saturation at positions 5, 18, 19, 20.
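Note: peptides expressed intracellularly from a pBAD plasmid library in pooled LB shake-flask culture, induced with 0.3% L-arabinose, DNA abundance read by NGS, three biological replicates, DESeq2 with apeglm shrinkage.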

Row | Sequence | shrunken log2 fold change
1 | RRIRERPPRLPRPRPRPGSKPRP | -0.129
2 | RRIRERPPRLPRPRPRPHACPRP | 0.013
3 | RRIRERPPRLPRPRPRPHAGPRP | 0.0727
4 | RRIRERPPRLPRPRPRPHDHPRP | -0.224
5 | RRIRERPPRLPRPRPRPHEGPRP | 0.127
6 | RRIRERPPRLPRPRPRPHETPRP | -0.0135
7 | RRIRERPPRLPRPRPRPHFVPRP | -0.0987
8 | RRIRERPPRLPRPRPRPHGKPRP | -0.0244
9 | RRIRERPPRLPRPRPRPHHWPRP | -0.315
10 | RRIRERPPRLPRPRPRPHICPRP | 0.0721
11 | RRIRERPPRLPRPRPRPHIEPRP | 0.0737
12 | RRIRERPPRLPRPRPRPHLVPRP | -0.125
13 | RRIRERPPRLPRPRPRPHLWPRP | 2.71
14 | RRIRERPPRLPRPRPRPHMWPRP | -0.0491
15 | RRIRERPPRLPRPRPRPHNEPRP | -0.438
16 | RRIRERPPRLPRPRPRPHPYPRP | -0.103
17 | RRIRERPPRLPRPRPRPHRFPRP | -0.169
18 | RRIRERPPRLPRPRPRPHSCPRP | 0.00997
19 | RRIRERPPRLPRPRPRPHSMPRP | -0.126
20 | RRIRERPPRLPRPRPRPHTAPRP | -0.14
21 | RRIRERPPRLPRPRPRPHTRPRP | -0.0821
22 | RRIRERPPRLPRPRPRPHVVPRP | -0.162
23 | RRIRERPPRLPRPRPRPHWCPRP | 0.0281
24 | RRIRERPPRLPRPRPRPIAMPRP | 0.188
25 | RRIRERPPRLPRPRPRPICSPRP | -0.0316

Row | Sequence | shrunken log2 fold change
26 | RRIRERPPRLPRPRPRPICVPRP | -0.301
27 | RRIRERPPRLPRPRPRPIDYPRP | -0.0881
28 | RRIRERPPRLPRPRPRPIGEPRP | 0.128
29 | RRIRERPPRLPRPRPRPIGMPRP | 0.115
30 | RRIRERPPRLPRPRPRPIHKPRP | -0.424
31 | RRIRERPPRLPRPRPRPIKYPRP | -0.351
32 | RRIRERPPRLPRPRPRPILTPRP | -0.337
33 | RRIRERPPRLPRPRPRPILVPRP | 0.028
34 | RRIRERPPRLPRPRPRPINIPRP | -0.973
35 | RRIRERPPRLPRPRPRPINYPRP | -0.286
36 | RRIRERPPRLPRPRPRPIPIPRP | -0.027
37 | RRIRERPPRLPRPRPRPIRHPRP | -0.397
38 | RRIRERPPRLPRPRPRPIRPPRP | -0.0241
39 | RRIRERPPRLPRPRPRPIRYPRP | -0.00369
40 | RRIRERPPRLPRPRPRPITRPRP | -0.149
41 | RRIRERPPRLPRPRPRPIVCPRP | -0.022
42 | RRIRERPPRLPRPRPRPIVPPRP | -0.25
43 | RRIRERPPRLPRPRPRPIVYPRP | 0.0176
44 | RRIRERPPRLPRPRPRPIWGPRP | -0.0579
45 | RRIRERPPRLPRPRPRPIYQPRP | -0.394
46 | RRIRERPPRLPRPRPRPKARPRP | -0.276
47 | RRIRERPPRLPRPRPRPKCCPRP | -0.191
48 | RRIRERPPRLPRPRPRPKCFPRP | -0.193
49 | RRIRERPPRLPRPRPRPKCTPRP | -0.882
50 | RRIRERPPRLPRPRPRPKDCPRP | 0.033

Row | Sequence | shrunken log2 fold change
51 | RRIRERPPRLPRPRPRPKEQPRP | 0.0401
52 | RRIRERPPRLPRPRPRPKERPRP | 0.547
53 | RRIRERPPRLPRPRPRPKFCPRP | -0.267
54 | RRIRERPPRLPRPRPRPKFWPRP | 0.375
55 | RRIRERPPRLPRPRPRPKFYPRP | -0.519
56 | RRIRERPPRLPRPRPRPKGCPRP | -0.0587
57 | RRIRERPPRLPRPRPRPKHDPRP | -0.441
58 | RRIRERPPRLPRPRPRPKIDPRP | -0.0798
59 | RRIRERPPRLPRPRPRPKIQPRP | -0.259
60 | RRIRERPPRLPRPRPRPKKGPRP | -0.438
61 | RRIRERPPRLPRPRPRPKLKPRP | -0.387
62 | RRIRERPPRLPRPRPRPKLYPRP | -0.432
63 | RRIRERPPRLPRPRPRPKMMPRP | -0.153
64 | RRIRERPPRLPRPRPRPKNCPRP | -0.0945
65 | RRIRERPPRLPRPRPRPKNHPRP | -0.499
66 | RRIRERPPRLPRPRPRPKPGPRP | 0.469
67 | RRIRERPPRLPRPRPRPKPNPRP | 0.0803
68 | RRIRERPPRLPRPRPRPKQFPRP | -0.0933
69 | RRIRERPPRLPRPRPRPKQKPRP | -0.0338
70 | RRIRERPPRLPRPRPRPKQLPRP | 0.123
71 | RRIRERPPRLPRPRPRPKQRPRP | 0.235
72 | RRIRERPPRLPRPRPRPKQSPRP | -0.0888
73 | RRIRERPPRLPRPRPRPKTHPRP | -0.392
74 | RRIRERPPRLPRPRPRPKTLPRP | -0.185
75 | RRIRERPPRLPRPRPRPKVPPRP | -0.015
